Assay results as given in PMC4991852, “The Sac3 TPR-like region in the Saccharomyces cerevisiae TREX-2 complex is more extensive but independent of the CID region” (Journal of Structural Biology, 2016).

B1: Thp1 (natural protein, S. cerevisiae, UniProt Q08231 1-455, looked up)
chain: MDMANQLLDELAHGNFSHLTLNLSQNGREIAILQKQLTGFDDKQLETFVEQHPAMPNDTRFKIMCTSFLNYARDVDPWSAWSSSDLIFEFYQCLINCLINDNAPHIEMLIPVATRETEFIINLAGKLDSFHLQLHTRSHQFLSHISSILSRLFNSIKPPRGNASSTNIPGKQRILLYLVNKLNNIYFRIESPQLCSNIFKNFQPKSMLAHFNEYQLDQQIEYRYLLGRYYLLNSQVHNAFVQFNEAFQSLLNLPLTNQAITRNGTRILNYMIPTGLILGKMVKWGPLRPFLSQETIDNWSVLYKHVRYGNIQGVSLWLRQNERHLCARQLLIVLLEKLPMVTYRNLIKTVIKSWTTEWGQNKLPYSLIERVLQLSIGPTFEDPGAQEITIYNGIHSPKNVENVLVTLINLGLLRANCFPQLQLCVVKKTTMIQEIVPPVNERITKMFPAHSHVLW
notes: Thp1, S. cerevisiae; The theoretical mass of 195 kDa for TREX-2^1-805 fits whole chains of the four small subunits; source: Sf9, baculovirus, co-expressed with GST-Sac3; in lysate and purified with the complex (glutathione Sepharose, heparin, SEC)
B2: Sem1 (natural protein, S. cerevisiae, UniProt O94742 1-89, looked up)
chain: MSTDVAAAQAQSKIDLTKKKNEEINKKSLEEDDEFEDFPIDTWANGETIKSNAVTQTNIWEENWDDVEVDDDFTNELKAELDRYKRENQ
notes: Sem1, S. cerevisiae; source: Sf9, baculovirus, co-expressed with GST-Sac3; in lysate and purified with the complex (glutathione Sepharose, heparin, SEC)
B3: Cdc31 (natural protein, S. cerevisiae, UniProt P06704 1-161, looked up)
chain: MSKNRSSLQSGPLNSELLEEQKQEIYEAFSLFDMNNDGFLDYHELKVAMKALGFELPKREILDLIDEYDSEGRHLMKYDDFYIVMGEKILKRDPLDEIKRAFQLFDDDHTGKISIKNLRRVAKELGETLTDEELRAMIEEFDLDGDGEINENEFIAICTDS
notes: Cdc31, S. cerevisiae; source: Sf9, baculovirus, co-expressed with GST-Sac3; in lysate and purified with the complex (glutathione Sepharose, heparin, SEC)
B4: Sus1 (natural protein, S. cerevisiae, UniProt Q6WNK7 1-96, looked up)
chain: MTMDTAQLKSQIQQYLVESGNYELISNELKARLLQEGWVDKVKDLTKSEMNINESTNFTQILSTVEPKALEMVSDSTRETVLKQIREFLEEIVDTQ
notes: Sus1, S. cerevisiae; source: Sf9, baculovirus, co-expressed with GST-Sac3; in lysate and purified with the complex (glutathione Sepharose, heparin, SEC)

target: T1, Sac3 (residues 140-805) (S. cerevisiae, UniProt P46674 140-805); assay: SEC-SAXS; on-line HPLC with Superdex 200 Increase 3.2/300, beamline BM29 (ESRF), 20 °C; mass from I(0) against a BSA standard; settings: both partners purified
T1 construct: Sac3, S. cerevisiae, residues 140-805 by the complex's name; the text says that residues 1-140 were deleted; also called Sac3 of TREX-2^140–805
T1 sequence (looked up): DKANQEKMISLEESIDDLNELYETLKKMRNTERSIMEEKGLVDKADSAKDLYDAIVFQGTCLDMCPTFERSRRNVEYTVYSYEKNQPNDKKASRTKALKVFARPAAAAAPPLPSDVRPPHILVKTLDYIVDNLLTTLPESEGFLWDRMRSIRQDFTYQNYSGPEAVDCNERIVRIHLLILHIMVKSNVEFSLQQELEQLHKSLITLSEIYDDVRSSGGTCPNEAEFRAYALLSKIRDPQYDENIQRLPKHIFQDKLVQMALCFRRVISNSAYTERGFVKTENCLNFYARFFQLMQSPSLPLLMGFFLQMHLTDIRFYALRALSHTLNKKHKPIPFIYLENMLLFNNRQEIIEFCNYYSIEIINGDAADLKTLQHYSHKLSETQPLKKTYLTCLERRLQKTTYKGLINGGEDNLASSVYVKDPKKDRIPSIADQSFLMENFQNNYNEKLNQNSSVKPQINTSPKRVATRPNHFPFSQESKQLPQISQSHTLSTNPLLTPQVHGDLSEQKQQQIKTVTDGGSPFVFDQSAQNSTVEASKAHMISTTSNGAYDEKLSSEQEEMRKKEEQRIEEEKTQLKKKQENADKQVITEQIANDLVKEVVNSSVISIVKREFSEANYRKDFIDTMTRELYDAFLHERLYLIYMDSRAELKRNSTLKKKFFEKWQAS

| Binder | binding result |
| --- | --- |
| B1 | binds |
| B2 | binds |
| B3 | binds |
| B4 | binds |
